Experimental data reported in patent publication US20210363257A1 (Pieris, published 2021).

What was measured:
[1] = target: T1, cyPD-L1-His (cynomolgus PD-L1 with a C-terminal polyhistidine tag) (cynomolgus); test: ELISA, cyPD-L1-His coated, detection anti-human IgG Fc-HRP
T1 construct: Bought
Protocol: (§1) Recombinant huPD-L1-His or cyPD-L1-His (human or cynomolgus PD-L1 with a C-terminal polyhistidine tag, R&D Systems or Sino Biologics) at the concentration of 1 μg/mL in PBS was coated overnight on microtiter plates at 4° C. After washing with PBS-0.05% T (PBS supplemented with 0.05% (v/v) Tween 20), the plates were blocked with 2% BSA (w/v) in PBS-0.1% T (PBS supplemented with 0.1% (v/v) Tween 20) for 1 h at room temperature. […] Bound molecules under study were detected by incubation with 1:5000 diluted anti-human IgG Fc-HRP (Jackson Laboratory) in PBS-0.1% T-2% BSA. After an additional wash step, fluorogenic HRP substrate (QuantaBlu, Thermo) was added to each well and the fluorescence intensity was detected using a fluorescence microplate reader.

[2] = target: T2, human PD-L1 expressed on cells (human, UniProt Q9NZQ7 19-290); test: flow cytometry, Flp-In-CHO::huPDL-1 cells
T2 construct: whole, on cells; also called Flp-In-CHO::huPDL-1; RKO cells
Protocol: (§2) The geometric means of the fluorescence intensity were used to calculate EC₅₀ values using nonlinear regression (shared bottom, SLOPE=1).
(§3) 5×10⁴ cells per well were incubated for 1 h in ice-cold PBS containing 5% fetal calf serum (PBS-FCS). A dilution series of the fusion proteins and control antibodies were added to the cells and incubated for 1 h on ice. Cells were washed twice with PBS and then incubated with a goat anti-hIgG Alexa647-labeled antibody for 30 min on ice. Cells were subsequently washed and analyzed using iQue Flow cytometer (Intellicyte Screener). Mean geometric fluorescent signals were plotted and fitted with Graphpad software using nonlinear regression (shared bottom, SLOPE=1).

[3] = target: T2, human PD-L1 expressed on cells; test: flow cytometry, RKO tumor cells (PD-L1-positive)
Protocol: as §3
For flow cytometric analysis, RKO cells were incubated with fusion proteins and detected using a fluorescently labeled anti-human IgG antibody as described in Example 6.

[4] = target: T3, cynomolgus PD-L1 expressed on cells (cynomolgus); test: flow cytometry, Flp-In-CHO::cynoPDL-1 cells
T3 construct: whole, on cells; also called Flp-In-CHO::cynoPDL-1
Protocol: as §2, §3

[5] = target: T4, huPD-L1-His (human PD-L1 with a C-terminal polyhistidine tag) (human, UniProt Q9NZQ7 19-239); test: ELISA, huPD-L1-His coated, detection anti-human IgG Fc-HRP
T4 construct: Bought; also called biotinylated huPD-L1-His
Protocol: as §1

[6] = target: T4, huPD-L1-His (human PD-L1 with a …); test: SPR (Biacore), binder captured by anti-human IgG Fc, huPD-L1-His in solution, 25 C, 1:1 model
Protocol: (§4) The binding kinetics and affinity of exemplary fusion proteins to huPD-L1-His or huCD137-His (human PD-L1 or human CD137 with a C-terminal polyhistidine tag, R&D Systems) were determined by surface plasmon resonance (SPR) using a Biacore 8K or a Biacore T200 (GE Healthcare).
(§5) The anti-human IgG Fc antibody (GE Healthcare) was immobilized on a CM5 sensor chip using standard amine chemistry: the carboxyl groups on the chip were activated using 1-ethyl-3-(3-dimethylaminopropyl)-carbodiimide (EDC) and N-hydroxysuccinimide (NHS). Subsequently, anti-human IgG Fc antibody solution (GE Healthcare) at a concentration of 25 μg/mL in 10 mM sodium acetate (pH 5.0) was applied at a flow rate of 5 μL/min until an immobilization level of 6000-10000 resonance units (RU) was achieved. Residual non-reacted NHS-esters were blocked by passing a solution of 1M ethanolamine across the surface. The reference channel was treated in an analogous manner. […] After each capture step, the needle was washed.
(§6) Double referencing was used and the 1:1 binding model was used to fit the raw data.

[7] = target: T5, huPD-L1-Fc (recombinant human PD-L1 Fc fusion) (human, UniProt Q9NZQ7 19-239); test: competitive ELISA, huPD-1-His coated, 15 nM huPD-L1-Fc tracer, binder titrated
T5 construct: Bought; also called tracer huPD-L1-Fc
Protocol: Recombinant huPD-1-His (Acrobiosystems) in PBS (1 μg/mL) was coated overnight on microtiter plates at 4° C. The plates were washed five times after each incubation step with 100 μL PBS-0.05% T (PBS supplemented with 0.05% (v/v) Tween 20). The plates were blocked with 2% BSA (w/v) in PBS-0.1% T (PBS supplemented with 0.1% (v/v) Tween 20) for 1 h at room temperature and subsequently washed again. […] The mixtures of fusion proteins and the tracer were added to the plates and incubated for 20 min at room temperature following by five washing steps with 100 μL PBS-0.05% T. Subsequently, a 1:5000 dilution of goat-anti human IgG-Fc HRP (Jackson) was added to the wells and incubated for 1 h. After an additional wash step, fluorogenic HRP substrate (QuantaBlu, Thermo) was added to each well, and the fluorescence intensity was detected using a fluorescence microplate reader.

[8] = target: T6, human CD137 expressed on cells (human, UniProt Q07011 24-255); test: cell-based or functional assay
[9] = target: T4, huPD-L1-His (human PD-L1 with a …); test: dual-binding ELISA, huPD-L1-His coated, binder titrated, detection with biotinylated huCD137-His
Protocol: Recombinant huPD-L1-His (R&D Systems) in PBS (1 μg/mL) was coated overnight on microtiter plates at 4° C. The plates were washed five times after each incubation step with 100 μL PBS-0.05% T. The plates were blocked with 2% BSA (w/v) in PBS-0.1% T for 1 h at room temperature and subsequently washed again. Different concentrations of tested fusion proteins were added to the wells and incubated for 1 h at room temperature, followed by a wash step. […] After washing, a 1:5000 dilution of ExtrAvidin-HRP (Sigma-Aldrich) in PBS-0.1% T-2% BSA was added to the wells and incubated for 1 h. After an additional wash step, fluorogenic HRP substrate (QuantaBlu, Thermo) was added to each well, and the fluorescence intensity was detected using a fluorescence microplate reader.

[10] = target: T7, huCD137-His (human CD137 with a C-terminal polyhistidine tag) (human, UniProt Q07011 24-186); test: dual-binding ELISA, huCD137-His coated, binder titrated, detection with biotinylated huPD-L1-His
T7 construct: Bought; also called huCD137-His-Bio

[11] = target: T7, huCD137-His (human CD137 with a …); test: SPR (Biacore), binder captured by anti-human IgG Fc, huCD137-His in solution, 25 C, 1:1 model
Protocol: as §4, §5, §6

[12] = target: T6, human CD137 expressed on cells; test: flow cytometry, Flp-In-CHO::huCD137 cells
Protocol: as §2, §3

[13] = target: cyCD137-Fc (cynomolgus CD137 C-terminally fused to Fc) (cynomolgus); test: ELISA, cyCD137-Fc coated, detection anti-NGAL-HRP
Protocol: as §1
(§7) The same ELISA setup was also employed to determine the binding potency of fusion proteins to CD137, where huCD137-His (human CD137 with C-terminal polyhistidine tag, R&D Systems) or cyCD137-Fc (cynomolgus CD137 C-terminally fused to Fc) was instead coated on a microtiter plate. The testing agents were similarly titrated and bound agents were detected via anti-NGAL-HRP.

[14] = target: T7, huCD137-His (human CD137 with a …); test: ELISA, huCD137-His coated, detection anti-NGAL-HRP
Protocol: as §1, §7

[15] = target: T8, cynomolgus CD137 expressed on cells (cynomolgus, UniProt A9YYE7 24-254); test: flow cytometry, Flp-In-CHO::cynoCD137 cells
T8 construct: also called Flp-In-CHO::cynoCD137
Protocol: as §2, §3

T2 sequence (Q9NZQ7 19-290): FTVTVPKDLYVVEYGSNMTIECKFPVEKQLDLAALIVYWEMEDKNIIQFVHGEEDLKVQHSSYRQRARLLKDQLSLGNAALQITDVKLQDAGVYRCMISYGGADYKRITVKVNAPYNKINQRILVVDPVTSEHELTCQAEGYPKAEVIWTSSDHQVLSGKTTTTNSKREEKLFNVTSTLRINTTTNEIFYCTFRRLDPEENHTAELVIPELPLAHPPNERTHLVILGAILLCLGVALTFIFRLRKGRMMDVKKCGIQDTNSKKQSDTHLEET
T6 sequence (Q07011 24-255): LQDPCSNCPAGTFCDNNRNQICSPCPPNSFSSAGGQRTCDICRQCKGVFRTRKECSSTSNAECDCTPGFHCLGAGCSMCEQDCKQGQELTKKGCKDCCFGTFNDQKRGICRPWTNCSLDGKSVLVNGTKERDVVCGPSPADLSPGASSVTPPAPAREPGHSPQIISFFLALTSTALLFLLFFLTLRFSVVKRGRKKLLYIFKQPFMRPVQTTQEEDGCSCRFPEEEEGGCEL
T7 sequence (Q07011 24-186 limits assumed): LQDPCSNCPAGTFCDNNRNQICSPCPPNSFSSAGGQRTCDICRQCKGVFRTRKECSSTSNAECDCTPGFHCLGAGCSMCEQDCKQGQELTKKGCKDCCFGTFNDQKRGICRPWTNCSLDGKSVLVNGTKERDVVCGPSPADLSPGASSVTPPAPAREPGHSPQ
T5 sequence (Q9NZQ7 19-239 limits assumed): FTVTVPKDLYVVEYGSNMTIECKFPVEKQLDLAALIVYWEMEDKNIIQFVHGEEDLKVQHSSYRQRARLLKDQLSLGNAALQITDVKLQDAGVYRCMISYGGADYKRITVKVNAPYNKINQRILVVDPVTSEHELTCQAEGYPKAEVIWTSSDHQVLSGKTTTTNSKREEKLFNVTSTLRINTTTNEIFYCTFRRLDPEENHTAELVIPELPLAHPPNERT
T4 sequence (Q9NZQ7 19-239 limits assumed): as above
T8 sequence (A9YYE7 entry or part of it limits assumed): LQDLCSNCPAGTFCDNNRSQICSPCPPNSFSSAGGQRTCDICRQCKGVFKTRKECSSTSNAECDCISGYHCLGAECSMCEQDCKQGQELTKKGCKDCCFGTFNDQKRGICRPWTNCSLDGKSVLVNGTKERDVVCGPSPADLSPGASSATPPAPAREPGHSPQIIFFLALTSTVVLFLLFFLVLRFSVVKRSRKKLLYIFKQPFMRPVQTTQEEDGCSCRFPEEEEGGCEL

Row | Binder | EC50 [1] [nM] | EC50 [2] [nM] | EC50 [3] [nM] | EC50 [4] [nM] | EC50 [5] [nM] | Kd [6] [nM] | koff [6] [s⁻¹] | kon [6] [M⁻¹ s⁻¹] | IC50 [7] [nM] | EC50 [nM] With RKO cells (CD137 Bioassay, NFκB-luc2/CD137 Jurkat luminescence) [8] [nM] | EC50 [9] [nM] | EC50 [10] [nM] | Kd [11] [nM] | koff [11] [s⁻¹] | kon [11] [M⁻¹ s⁻¹] | EC50 [12] [nM] | EC50 [13] [nM] | EC50 [14] [nM] | EC50 [15] [nM]
1 | PD-L1 antibody SEQ ID NOs: 86 and 87 (building block of the fusion proteins) (antibody, human IgG4 S228P, kappa, F234A L235A, V domains shown) VH: QVQLQESGPGLVKPSETLSITCTVSGFSLSNYDISWIRQPPGKGLEWLGVIWTGGATNYNPALKSRLTISRDNSKNQVSLKMSSVTAADTAVYYCVRDSNYRYDEPFTYWGQGTLVTVSS VL: EIVLTQSPDTLSVTPKEKVTLTCRASQSIGTNIHWFQQKPGQSPKLLIKYASESISGVPSRFSGSGSGTDFTLTINSVEAEDAATYYCQQSNSWPYTFGQGTKLEIKR | 0.1 | 2.96 | 0.32 | 3.55 | 0.12 | 0.593 | 0.000649 | 1.09e+06 | 3.5 |  |  |  |  |  |  |  |  |  | 
2 | fusion protein SEQ ID NOs: 86 and 93 (bispecific antibody, human IgG4 S228P, kappa, F234A L235A, Antibody-lipocalin mutein fusion, IgG4 S228P backbone; Bivalent to CD137) heavy: not shown light: QDSTSDLIPAPPLSKVPLQQNFQDNQFHGKWYVVGQAGNIRLREDKDPIKMMATIYELKEDKSYDVTMVKFDDKKCMYDIWTFVPGSQPGEFTLGKIKSFPGHTSSLVRVVSTNYNQHAMVFFKFVFQNREEFYITLYGRTKELTSELKENFIRFSKSLGLPENHIVFPVPIDQCIDGGGGGSGGGGSGGGGSEIVLTQSPDTLSVTPKEKVTLTCRASQSIGTNIHWFQQKPGQSPKLLIKYASESISGVPSRFSGSGSGTDFTLTINSVEAEDAATYYCQQSNSWPYTFGQGTKLEIKRTVAAPSVFIFPPSDEQLKSGTASVVCLLNNFYPREAKVQWKVDNALQSGNSQESVTEQDSKDSTYSLSSTLTLSKADYEKHKVYACEVTHQGLSSPVTKSFNRGEC | 0.17 | 4.63 | 1.38 | 2.03 | 0.19 | 1.38 | 0.000754 | 546000 | 3.2 | 0.264 | 0.74 | 6.7 | 3.55 | 0.00013 | 36800 | 12.7 | 8.1 | 0.35 | 
3 | fusion protein SEQ ID NOs: 92 and 87 (bispecific antibody, human IgG4 S228P, kappa, F234A L235A, Antibody-lipocalin mutein fusion, IgG4 S228P backbone; Bivalent to CD137) heavy: not shown light: EIVLTQSPDTLSVTPKEKVTLTCRASQSIGTNIHWFQQKPGQSPKLLIKYASESISGVPSRFSGSGSGTDFTLTINSVEAEDAATYYCQQSNSWPYTFGQGTKLEIKRTVAAPSVFIFPPSDEQLKSGTASVVCLLNNFYPREAKVQWKVDNALQSGNSQESVTEQDSKDSTYSLSSTLTLSKADYEKHKVYACEVTHQGLSSPVTKSFNRGEC | 0.15 | 2.95 | 1 | 2.03 | 0.16 | 1.02 | 0.000803 | 787000 | 3.4 | 0.181 | 1.2 | 7.2 | 5.97 | 0.000208 | 34800 | 11.9 | 9.8 | 0.41 | 

The next lines start with the values.

Row | EC50 [1] [nM] | EC50 [2] [nM] | EC50 [3] [nM] | EC50 [4] [nM] | EC50 [5] [nM] | Kd [6] [nM] | koff [6] [s⁻¹] | kon [6] [M⁻¹ s⁻¹] | IC50 [7] [nM] | EC50 [nM] With RKO cells (CD137 Bioassay, NFκB-luc2/CD137 Jurkat luminescence) [8] [nM] | EC50 [9] [nM] | EC50 [10] [nM] | Kd [11] [nM] | koff [11] [s⁻¹] | kon [11] [M⁻¹ s⁻¹] | EC50 [12] [nM] | EC50 [13] [nM] | EC50 [14] [nM] | EC50 [15] [nM] | Binder
4 | 0.15 | 6.99 | 0.69 | 5.89 | 0.18 | 0.608 | 0.000916 | 1.51e+06 | 2.4 |  | 0.48 | 2.6 | 5.5 | 0.000224 | 40700 | 4.15 | 0.19 | 0.16 | 6.92 | fusion protein SEQ ID NOs: 94 and 87 (bispecific antibody, human IgG4 S228P, kappa, F234A L235A, Antibody-lipocalin mutein fusion, IgG4 S228P backbone) heavy: not shown light: EIVLTQSPDTLSVTPKEKVTLTCRASQSIGTNIHWFQQKPGQSPKLLIKYASESISGVPSRFSGSGSGTDFTLTINSVEAEDAATYYCQQSNSWPYTFGQGTKLEIKRTVAAPSVFIFPPSDEQLKSGTASVVCLLNNFYPREAKVQWKVDNALQSGNSQESVTEQDSKDSTYSLSSTLTLSKADYEKHKVYACEVTHQGLSSPVTKSFNRGEC
5 |  |  |  |  |  |  |  |  |  | 0.814 |  |  | 6.24 |  |  | 1.31 |  |  |  | reference CD137 antibody SEQ ID NOs: 28 and 29 (antibody, human IgG4 S228P, kappa, V domains shown, also called anti-CD137 benchmark antibody) VH: QVQLQQWGAGLLKPSETLSLTCAVYGGSFSGYYWSWIRQSPEKGLEWIGEINHGGYVTYNPSLESRVTISVDTSKNQFSLKLSSVTAADTAVYYCARDYGPGNYDWYFDLWGRGTLVTVSS VL: EIVLTQSPATLSLSPGERATLSCRASQSVSSYLAWYQQKPGQAPRLLIYDASNRATGIPARFSGSGSGTDFTLTISSLEPEDFAVYYCQQRSNWPPALTFGGGTKVEIKR
